# Experimental data reported in the supplement of paper PMC10567573.
# B1: FOXJ1 (parent)
# chain: SAIYKWITDNFCYFRHADPTWQNS
# B2: SMOC2 (parent)
# chain: QKPLCASDGRTFLSRCEFQRAKCK
# Variants of: B1
# Test: protein stability index of a GFP-peptide fusion (GPS, HEK-293T) (PSI 1-6); higher = more stable
# Conditions: c terminus: a fixed tail appended
# 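Further: lentivirally expressed fusions sorted by FACS into six bins by GFP to DsRed ratio, PSI derived from sequencing read proportions per bin multiplied by bin number.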
row,Variant,protein stability index
1,SAIYNWITDNFCYFRHADPTWQNS [K5N],3.19
2,SAIYKWITDNFCYFRLADPTWQNS [H16L],4.65
3,SAIYKWITDNFCYFRHADPTWQND [S24D],4.48
4,LAIYKWITDNFCYFRHADPTWQNS [S1L],2.55
5,SAIYKWITDNFCYFRHRDPTWQNS [A17R],3.34
6,SAIYKWITDNFCYMRHADPTWQNS [F14M],2.21
7,SAIYKWITDNFCYFRHACPTWQNS [D18C],2.02
8,SAIYKWITDNFCYFRHAGPTWQNS [D18G],2.24

# Variants of: B2
# Test: as above
# Conditions: c terminus: a fixed tail appended
row,Variant,protein stability index
1,QKPLCASDGRTFLSRCEFQRAICK [K22I],2.27
2,QKPLCASDGRTFLSRCEFQRARCK [K22R],2.95
3,QKPLCASDGRTFLSRCEFQRAVCK [K22V],2.86
4,QKPLCASDGRTFLSRCEFQRAQCK [K22Q],3
5,QKPLCASDGRTFLSRCEFQRANCK [K22N],3.07
6,QKPLCASDGRTFLSRCEFQRAECK [K22E],2.76
7,QKPLCASDGRTFLSRCEFQRATCK [K22T],2.71
8,QKPLCASDGRTFLSRCEFQRAPCK [K22P],2.88
9,QKPLCASDGRTFLSRCEFQRAMCK [K22M],2.36
10,QKPLCASDGRTFLSRCEFQRAFCK [K22F],2.65
11,QKPLCASDGRTFLSRCEFQRASCK [K22S],3.06
12,QKPLCASDGRTFLSRCEFQRACCK [K22C],2.72
13,QKPLCASDGRTFLSRCEFQRADCK [K22D],2.9
14,QKPLCASDGRTFLSRCEFQRAACK [K22A],3.02
15,QKPLCASDGRTFLSRCEFQRAGCK [K22G],3.29
16,QKPLCASDGRTFLSRCEFQRALCK [K22L],2.11
17,QKPLCASDGRTFLSRCEFQRAYCK [K22Y],2.46
18,QKPLCASDGRTFLSRCEFQRAHCK [K22H],2.31
19,QKPLCASDGRTFLSRCEFQRAWCK [K22W],2.86
20,QKPLCASDGRTFLSRCEFQRAKKK [C23K],4.07
21,QKPLCASDGRTFLSRCEFQRAKFK [C23F],1.88
22,QKPLCASDGRTFLSRCEFQRAKIK [C23I],3.41

row,Variant,protein stability index
1,QKPLCASDGRTFLSRCEFQRAKYK [C23Y],1.85
2,QKPLCASDGRTFLSRCEFQRAKDK [C23D],3.92
3,QKPLCASDGRTFLSRCEFQRAKSK [C23S],3.69
4,QKPLCASDGRTFLSRCEFQRAKPK [C23P],4.01
5,QKPLCASDGRTFLSRCEFQRAKLK [C23L],3.03
6,QKPLCASDGRTFLSRCEFQRAKEK [C23E],3.32
7,QKPLCASDGRTFLSRCEFQRAKRK [C23R],4.18
8,QKPLCASDGRTFLSRCEFQRAKTK [C23T],2.84
9,QKPLCASDGRTFLSRCEFQRAKHK [C23H],3.92
10,QKPLCASDGRTFLSRCEFQRAKMK [C23M],3.15
11,QKPLCASDGRTFLSRCEFQRAKNK [C23N],4
12,QKPLCASDGRTFLSRCEFQRAKQK [C23Q],3.91
13,QKPLCASDGRTFLSRCEFQRAKWK [C23W],2.34
14,QKPLCASDGRTFLSRCEFQRAKGK [C23G],3.62
15,QKPLCASDGRTFLSRCEFQRAKAK [C23A],2.9
16,QKPLCASDGRTFLSRCEFQPAKCK [R20P],3.61
17,QKPLCASDGRTFLSRCEFQQAKCK [R20Q],3.52
18,QKPLCASDGRTFLSRCEFQYAKCK [R20Y],2.62
19,QKPLCASDGRTFLSRCEFQVAKCK [R20V],2.9
20,QKPLCASDGRTFLSRCEFQTAKCK [R20T],3.83
21,QKPLCASDGRTFLSRCEFQLAKCK [R20L],3.01
22,QKPLCASDGRTFLSRCEFQWAKCK [R20W],2.4

row,Variant,protein stability index
1,QKPLCASDGRTFLSRCEFQKAKCK [R20K],3.47
2,QKPLCASDGRTFLSRCEFQMAKCK [R20M],3.57
3,QKPLCASDGRTFLSRCEFQNAKCK [R20N],3.1
4,QKPLCASDGRTFLSRCEFQSAKCK [R20S],3.19
5,QKPLCASDGRTFLSRCEFQRIKCK [A21I],3.14
6,QKPLCASDGRTFLSRCEFQRPKCK [A21P],3.98
7,QKPLCASDGRTFLSRCEFQRKKCK [A21K],3.9
8,QKPLCASDGRTFLSRCEFQREKCK [A21E],3.1
9,QKPLCASDGRTFLSRCEFQRDKCK [A21D],3.17
10,QKPLCASDGRTFLSRCEFQRCKCK [A21C],3.48
11,QKPLCASDGRTFLSRCEFQRNKCK [A21N],2.68
12,QKPLCASDGRTFLSRCEFQRTKCK [A21T],3.4
13,QKPLCASDGRTFLSRCEFQRMKCK [A21M],2.88
14,QKPLCASDGRTFLSRCEFQRWKCK [A21W],1.85
15,QKPLCASDGRTFLSRCEFQRHKCK [A21H],2.7
16,QKPLCASDGRTFLSRCEFQRLKCK [A21L],2.48
17,QKPLCASDGRTFLSRCEFQRSKCK [A21S],3.14
18,QKPLCASDGRTFLSRCEFQRRKCK [A21R],3.18
19,QKPLCASDGRTFLSRCEFQRGKCK [A21G],3.68
20,QKPLCASDGRTFLSRCEFQRVKCK [A21V],2.96
21,QKPLCASDGRTFLSRCEFQRYKCK [A21Y],2.58
22,QKPLCASDGRTFLSRCEFQRQKCK [A21Q],3.24

row,Variant,protein stability index
1,QKPLCASDGRTFLSRCEFQRFKCK [A21F],2.44
2,QKPLCASDGRTFLSRCEFQRAKCF [K24F],1.92
3,QKPLCASDGRTFLSRCEFQRAKCG [K24G],2.95
4,QKPLCASDGRTFLSRCEFQRAKCE [K24E],3.19
5,QKPLCASDGRTFLSRCEFQRAKCL [K24L],2.5
6,QKPLCASDGRTFLSRCEFQRAKCN [K24N],2.48
7,QKPLCASDGRTFLSRCEFQRAKCV [K24V],2.62
8,QKPLCASDGRTFLSRCEFQRAKCW [K24W],2.36
9,QKPLCASDGRTFLSRCEFQRAKCA [K24A],3
10,QKPLCASDGRTFLSRCEFQRAKCH [K24H],2.76
11,QKPLCASDGRTFLSRCEFQRAKCM [K24M],2.62
12,QKPLCASDGRTFLSRCEFQRAKCT [K24T],3.18
13,QKPLCASDGRTFLSRCEFQRAKCQ [K24Q],2.64
14,QKPLCASDGRTFLSRCEFQRAKCC [K24C],1.98
15,QKPLCASDGRTFLSRCEFQRAKCR [K24R],1.74
16,QKPLCASDGRTFLSRCEFQRAKCI [K24I],2.23
17,QKPLCASDGRTFLSRCEFQRAKCY [K24Y],2.49
18,QKPLCASDGRTFLSRCEFQRAKCD [K24D],3.35
19,QKPLCASDGRTFLSRCEFQRAKCP [K24P],2.83
20,QKPLCASDGRTFLSRCEFQRAKCS [K24S],2.88
